# Test results reported in patent US20040038876A1 (published 2004).
# Biological target: T1, Shh receptor molecules on C3H10T1/2 cells (UniProt Q61115 1-1434)
# T1 sequence (looked up): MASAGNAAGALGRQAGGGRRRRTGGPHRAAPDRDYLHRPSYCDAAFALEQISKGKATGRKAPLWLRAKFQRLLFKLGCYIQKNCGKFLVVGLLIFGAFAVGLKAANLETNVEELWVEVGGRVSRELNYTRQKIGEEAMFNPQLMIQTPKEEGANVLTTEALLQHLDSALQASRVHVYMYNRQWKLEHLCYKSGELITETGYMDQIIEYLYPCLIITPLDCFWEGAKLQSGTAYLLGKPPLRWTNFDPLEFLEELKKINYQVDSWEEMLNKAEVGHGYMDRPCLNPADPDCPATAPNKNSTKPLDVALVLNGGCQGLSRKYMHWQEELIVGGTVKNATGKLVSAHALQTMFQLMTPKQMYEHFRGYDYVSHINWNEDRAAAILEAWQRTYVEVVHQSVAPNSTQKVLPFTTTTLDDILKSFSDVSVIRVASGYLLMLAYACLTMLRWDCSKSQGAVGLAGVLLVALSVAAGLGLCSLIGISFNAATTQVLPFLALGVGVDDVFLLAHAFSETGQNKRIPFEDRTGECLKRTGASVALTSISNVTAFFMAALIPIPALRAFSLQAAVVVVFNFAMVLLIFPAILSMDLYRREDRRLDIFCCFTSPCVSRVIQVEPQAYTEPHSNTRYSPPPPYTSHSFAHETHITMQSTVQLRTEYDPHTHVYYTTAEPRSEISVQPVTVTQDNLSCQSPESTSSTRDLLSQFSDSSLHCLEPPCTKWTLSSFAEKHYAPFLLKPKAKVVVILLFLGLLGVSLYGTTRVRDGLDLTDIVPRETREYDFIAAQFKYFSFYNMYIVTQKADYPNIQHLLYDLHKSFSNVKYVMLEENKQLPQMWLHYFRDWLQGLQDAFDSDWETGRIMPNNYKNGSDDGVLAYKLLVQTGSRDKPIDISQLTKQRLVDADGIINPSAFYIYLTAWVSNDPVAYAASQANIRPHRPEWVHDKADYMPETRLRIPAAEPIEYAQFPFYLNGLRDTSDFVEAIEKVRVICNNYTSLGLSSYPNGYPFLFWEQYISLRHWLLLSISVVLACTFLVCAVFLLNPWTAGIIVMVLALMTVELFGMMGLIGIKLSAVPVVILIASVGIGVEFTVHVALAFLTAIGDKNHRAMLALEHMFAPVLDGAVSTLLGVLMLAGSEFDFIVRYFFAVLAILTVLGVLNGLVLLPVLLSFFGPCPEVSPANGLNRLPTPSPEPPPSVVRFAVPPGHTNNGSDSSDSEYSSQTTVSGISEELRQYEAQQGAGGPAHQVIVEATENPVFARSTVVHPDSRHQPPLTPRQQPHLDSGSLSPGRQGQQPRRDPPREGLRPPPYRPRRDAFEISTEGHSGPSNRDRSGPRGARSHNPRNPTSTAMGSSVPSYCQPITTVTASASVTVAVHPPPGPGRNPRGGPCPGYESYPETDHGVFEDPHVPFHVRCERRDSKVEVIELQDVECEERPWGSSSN
# Experiment: cell-based or functional assay
row,Binder,Potency (IC50) in C3H10T1/2 assay (alkaline phosphatase induction)
1,"mutant 21 (Shh C1II/A169C + N92C), 20 K PEG (ligand, 20 K PEG maleimide on thiol of Cys92, Cys169) not shown",> 20 µg/mL
2,"mutant 20 (Shh C1II/A169C + N68C), Pyrene-modified (ligand, N-(1-pyrenyl) maleimide on thiol of Cys68, Cys169) not shown",0.3 µg/mL
3,"mutant 19 (Shh C1II/A169C + Y57C), 20 K PEG (ligand, 20 K PEG maleimide on thiol of Cys57, Cys169) not shown",0.3 µg/mL
4,"mutant 18 (Shh C1II/A169C + N46C), NEM-modified (ligand, N-ethyl maleimide on thiol of Cys46, Cys169) not shown",0.2 µg/mL
5,"mutant 25 (Shh C1II/A169C + S133C), unmodified (ligand) not shown",0.4 µg/mL
6,"mutant 22 (Shh C1II/A169C + S154C), Pyrene-modified (ligand, N-(1-pyrenyl) maleimide on thiol of Cys154, Cys169) not shown",3 µg/mL
7,"mutant 19 (Shh C1II/A169C + Y57C), 5 K PEG (ligand, 5 K PEG maleimide on thiol of Cys57, Cys169) not shown",0.2 µg/mL
8,"mutant 21 (Shh C1II/A169C + N92C), Napth-modified (ligand, N-(1-naphthyl) maleimide on thiol of Cys92, Cys169) not shown",4 µg/mL
9,"mutant 20 (Shh C1II/A169C + N68C), NEM-modified (ligand, N-ethyl maleimide on thiol of Cys68, Cys169) not shown",0.2 µg/mL
10,"mutant 19 (Shh C1II/A169C + Y57C), Napth-modified (ligand, N-(1-naphthyl) maleimide on thiol of Cys57, Cys169) not shown",0.2 µg/mL
11,"mutant 20 (Shh C1II/A169C + N68C), unmodified (ligand) not shown",0.3 µg/mL
12,"mutant 22 (Shh C1II/A169C + S154C), Napth-modified (ligand, N-(1-naphthyl) maleimide on thiol of Cys154, Cys169) not shown",2 µg/mL
13,"mutant 24 (Shh C1II/A169C + S112C), Napth-modified (ligand, N-(1-naphthyl) maleimide on thiol of Cys112, Cys169) not shown",0.3 µg/mL
14,"mutant 18 (Shh C1II/A169C + N46C), Pyrene-modified (ligand, N-(1-pyrenyl) maleimide on thiol of Cys46, Cys169) not shown",0.5 µg/mL
15,"mutant 25 (Shh C1II/A169C + S133C), HPE-modified (ligand, beta-(4-hydroxyphenyl) ethylmaleimide on thiol of Cys133, Cys169) not shown",0.2 µg/mL
16,"mutant 24 (Shh C1II/A169C + S112C), 5 K PEG (ligand, 5 K PEG maleimide on thiol of Cys112, Cys169) not shown",0.6 µg/mL
17,"mutant 22 (Shh C1II/A169C + S154C), unmodified (ligand) not shown",1 µg/mL
18,"mutant 17 (Shh C1II/A169C + N27C), Pyrene-modified (ligand, N-(1-pyrenyl) maleimide on thiol of Cys27, Cys169) not shown",3 µg/mL
19,"mutant 20 (Shh C1II/A169C + N68C), 20 K PEG (ligand, 20 K PEG maleimide on thiol of Cys68, Cys169) not shown",0.4 µg/mL
20,"mutant 21 (Shh C1II/A169C + N92C), Pyrene-modified (ligand, N-(1-pyrenyl) maleimide on thiol of Cys92, Cys169) not shown",3 µg/mL
21,"mutant 17 (Shh C1II/A169C + N27C), Napth-modified (ligand, N-(1-naphthyl) maleimide on thiol of Cys27, Cys169) not shown",1.5 µg/mL
22,"mutant 21 (Shh C1II/A169C + N92C), 5 K PEG (ligand, 5 K PEG maleimide on thiol of Cys92, Cys169) not shown",> 20 µg/mL
23,"mutant 25 (Shh C1II/A169C + S133C), NEM-modified (ligand, N-ethyl maleimide on thiol of Cys133, Cys169) not shown",0.2 µg/mL
24,"mutant 21 (Shh C1II/A169C + N92C), NEM-modified (ligand, N-ethyl maleimide on thiol of Cys92, Cys169) not shown",2 µg/mL
25,"mutant 18 (Shh C1II/A169C + N46C), HPE-modified (ligand, beta-(4-hydroxyphenyl) ethylmaleimide on thiol of Cys46, Cys169) not shown",0.4 µg/mL
26,"mutant 22 (Shh C1II/A169C + S154C), 5 K PEG (ligand, 5 K PEG maleimide on thiol of Cys154, Cys169) not shown",5 µg/mL
27,"mutant 24 (Shh C1II/A169C + S112C), unmodified (ligand) not shown",0.4 µg/mL

row,Binder,Potency (IC50) in C3H10T1/2 assay (alkaline phosphatase induction)
1,"mutant 20 (Shh C1II/A169C + N68C), Napth-modified (ligand, N-(1-naphthyl) maleimide on thiol of Cys68, Cys169) not shown",0.3 µg/mL
2,"mutant 21 (Shh C1II/A169C + N92C), unmodified (ligand) not shown",1.5 µg/mL
3,"mutant 24 (Shh C1II/A169C + S112C), NEM-modified (ligand, N-ethyl maleimide on thiol of Cys112, Cys169) not shown",0.2 µg/mL
4,"mutant 22 (Shh C1II/A169C + S154C), NEM-modified (ligand, N-ethyl maleimide on thiol of Cys154, Cys169) not shown",2 µg/mL
5,"mutant 18 (Shh C1II/A169C + N46C), 5 K PEG (ligand, 5 K PEG maleimide on thiol of Cys46, Cys169) not shown",0.3 µg/mL
6,"mutant 19 (Shh C1II/A169C + Y57C), NEM-modified (ligand, N-ethyl maleimide on thiol of Cys57, Cys169) not shown",0.2 µg/mL
7,"mutant 18 (Shh C1II/A169C + N46C), Napth-modified (ligand, N-(1-naphthyl) maleimide on thiol of Cys46, Cys169) not shown",0.4 µg/mL
8,"mutant 18 (Shh C1II/A169C + N46C), 20 K PEG (ligand, 20 K PEG maleimide on thiol of Cys46, Cys169) not shown",0.3 µg/mL
9,"mutant 17 (Shh C1II/A169C + N27C), unmodified (ligand) not shown",0.4 µg/mL
10,"mutant 19 (Shh C1II/A169C + Y57C), HPE-modified (ligand, beta-(4-hydroxyphenyl) ethylmaleimide on thiol of Cys57, Cys169) not shown",0.3 µg/mL
11,"mutant 20 (Shh C1II/A169C + N68C), 5 K PEG (ligand, 5 K PEG maleimide on thiol of Cys68, Cys169) not shown",0.2 µg/mL
12,"mutant 21 (Shh C1II/A169C + N92C), HPE-modified (ligand, beta-(4-hydroxyphenyl) ethylmaleimide on thiol of Cys92, Cys169) not shown",2 µg/mL
13,"mutant 17 (Shh C1II/A169C + N27C), NEM-modified (ligand, N-ethyl maleimide on thiol of Cys27, Cys169) not shown",0.3 µg/mL
14,"mutant 17 (Shh C1II/A169C + N27C), 5 K PEG (ligand, 5 K PEG maleimide on thiol of Cys27, Cys169) not shown",4 µg/mL
15,"mutant 19 (Shh C1II/A169C + Y57C), unmodified (ligand) not shown",0.2 µg/mL
16,"mutant 17 (Shh C1II/A169C + N27C), 20 K PEG (ligand, 20 K PEG maleimide on thiol of Cys27, Cys169) not shown",8 µg/mL
17,"mutant 24 (Shh C1II/A169C + S112C), Pyrene-modified (ligand, N-(1-pyrenyl) maleimide on thiol of Cys112, Cys169) not shown",0.25 µg/mL
18,"mutant 18 (Shh C1II/A169C + N46C), unmodified (ligand) not shown",0.4 µg/mL
19,"mutant 22 (Shh C1II/A169C + S154C), HPE-modified (ligand, beta-(4-hydroxyphenyl) ethylmaleimide on thiol of Cys154, Cys169) not shown",2 µg/mL
20,"mutant 17 (Shh C1II/A169C + N27C), HPE-modified (ligand, beta-(4-hydroxyphenyl) ethylmaleimide on thiol of Cys27, Cys169) not shown",0.5 µg/mL
21,"mutant 24 (Shh C1II/A169C + S112C), HPE-modified (ligand, beta-(4-hydroxyphenyl) ethylmaleimide on thiol of Cys112, Cys169) not shown",0.2 µg/mL
22,"mutant 19 (Shh C1II/A169C + Y57C), Pyrene-modified (ligand, N-(1-pyrenyl) maleimide on thiol of Cys57, Cys169) not shown",0.3 µg/mL
23,"mutant 24 (Shh C1II/A169C + S112C), 20 K PEG (ligand, 20 K PEG maleimide on thiol of Cys112, Cys169) not shown",2 µg/mL
24,"mutant 20 (Shh C1II/A169C + N68C), HPE-modified (ligand, beta-(4-hydroxyphenyl) ethylmaleimide on thiol of Cys68, Cys169) not shown",0.2 µg/mL
25,"mutant 23 (Shh C1II/A169C + K82C), unmodified (ligand) not shown",0.2 µg/mL
26,"mutant 22 (Shh C1II/A169C + S154C), 20 K PEG (ligand, 20 K PEG maleimide on thiol of Cys154, Cys169) not shown",8 µg/mL
